Measurements from paper PMC9482650, “Quantitative fragmentomics allow affinity mapping of interactomes” (Nature Communications, 2022).

Tests used:
Experiment in all cases: holdup assay
Design in all cases: key: below the threshold = too weak to quantify, mostly under pKd 3.1 to 4
Settings in all cases: plain residues with an end cap or a label only (N-terminal biotin on a linker: ado-ado)
[1] = biological target: T1, DFNB31_3, Q9P202
T1 sequence (Q9P202 811-907, limits assumed, looked up): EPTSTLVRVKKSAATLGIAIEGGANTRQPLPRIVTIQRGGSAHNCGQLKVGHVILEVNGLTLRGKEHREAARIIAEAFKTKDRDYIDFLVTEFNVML

[2] = biological target: DLG4_2, P78352
[3] = biological target: DLG4_3, P78352
[4] = biological target: T2, DVL3, Q92997
T2 sequence (Q92997 244-331, limits assumed, looked up): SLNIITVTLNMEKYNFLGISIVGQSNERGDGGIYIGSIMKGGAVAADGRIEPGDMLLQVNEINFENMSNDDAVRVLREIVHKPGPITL

[5] = biological target: GIPC2, Q8TF65
[6] = biological target: GORASP1, Q9BQQ3
[7] = biological target: GORASP2, Q9H8Y8
[8] = biological target: T3, GRIP1_2, Q9Y3R0
T3 sequence (Q9Y3R0 145-248, limits assumed, looked up): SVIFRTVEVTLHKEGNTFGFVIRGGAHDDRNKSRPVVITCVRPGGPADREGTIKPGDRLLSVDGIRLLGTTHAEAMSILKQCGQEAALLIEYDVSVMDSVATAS

[9] = biological target: T4, GRIP1_3, Q9Y3R0
T4 sequence (Q9Y3R0 247-346, limits assumed, looked up): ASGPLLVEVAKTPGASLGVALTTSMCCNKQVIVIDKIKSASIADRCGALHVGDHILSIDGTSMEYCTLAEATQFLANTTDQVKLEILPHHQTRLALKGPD

[10] = biological target: T5, GRIP1_5, Q9Y3R0
T5 sequence (Q9Y3R0 568-668, limits assumed, looked up): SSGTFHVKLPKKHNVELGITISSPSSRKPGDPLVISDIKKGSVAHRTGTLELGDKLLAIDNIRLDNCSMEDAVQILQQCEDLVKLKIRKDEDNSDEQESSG

[11] = biological target: HTRA1, Q92743
[12] = biological target: Inadl_10, Q8NI35
[13] = biological target: T6, LIN7A, O14910
T6 sequence (O14910 103-200, limits assumed, looked up): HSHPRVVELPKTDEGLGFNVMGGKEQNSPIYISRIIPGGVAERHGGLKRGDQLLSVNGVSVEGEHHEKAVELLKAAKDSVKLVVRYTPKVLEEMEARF

[14] = biological target: LNX1_1, Q8TBB1
[15] = biological target: LNX1_3, Q8TBB1
[16] = biological target: MAGI1_1, Q96QZ7
[17] = biological target: MAST2, Q6P0Q8
[18] = biological target: NHERF4_2, Q86UT5
[19] = biological target: NHERF4_4, Q86UT5
[20] = biological target: PDLIM1, O00151
[21] = biological target: T7, PDZRN3_1, Q9UPQ7
T7 sequence (Q9UPQ7 244-349, limits assumed, looked up): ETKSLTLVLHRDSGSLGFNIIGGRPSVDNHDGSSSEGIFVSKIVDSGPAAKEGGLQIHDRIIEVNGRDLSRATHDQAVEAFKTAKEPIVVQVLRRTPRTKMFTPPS

[22] = biological target: PDZRN4_1, Q6ZMN7
[23] = biological target: T8, RADIL, Q96JH8
T8 sequence (Q96JH8 971-1071, limits assumed, looked up): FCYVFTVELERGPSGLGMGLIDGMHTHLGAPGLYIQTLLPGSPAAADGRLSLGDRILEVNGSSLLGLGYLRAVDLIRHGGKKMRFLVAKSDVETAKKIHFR

[24] = biological target: T9, RAPGEF6, Q8TEU7
T9 sequence (Q8TEU7 525-625, limits assumed, looked up): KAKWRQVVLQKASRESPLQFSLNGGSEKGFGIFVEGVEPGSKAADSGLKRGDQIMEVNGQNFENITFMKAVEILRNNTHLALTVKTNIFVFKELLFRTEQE

[25] = biological target: T10, RHPN1, Q8TCX5
T10 sequence (Q8TCX5 508-602, limits assumed, looked up): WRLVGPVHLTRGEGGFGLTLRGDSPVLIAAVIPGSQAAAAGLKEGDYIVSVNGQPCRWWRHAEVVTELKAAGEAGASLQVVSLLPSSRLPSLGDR

[26] = biological target: SCRIB_1, Q14160
[27] = biological target: TJP2_1, Q9UDY2
TJP2_1, Q9UDY2, sequence (Q9UDY2 24-128): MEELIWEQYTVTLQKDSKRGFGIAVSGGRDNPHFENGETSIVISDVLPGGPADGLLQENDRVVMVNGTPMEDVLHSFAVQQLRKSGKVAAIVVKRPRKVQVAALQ

HTRA1, Q92743, sequence (Q92743 360-477): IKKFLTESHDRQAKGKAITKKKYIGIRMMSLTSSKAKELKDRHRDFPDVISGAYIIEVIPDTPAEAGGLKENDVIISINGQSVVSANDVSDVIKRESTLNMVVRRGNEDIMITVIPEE
MAST2, Q6P0Q8, sequence (Q6P0Q8 1099-1202): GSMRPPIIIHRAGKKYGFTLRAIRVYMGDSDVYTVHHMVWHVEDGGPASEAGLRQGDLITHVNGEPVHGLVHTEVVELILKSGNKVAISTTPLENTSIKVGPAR
NHERF4_2, Q86UT5, sequence (Q86UT5 220-308): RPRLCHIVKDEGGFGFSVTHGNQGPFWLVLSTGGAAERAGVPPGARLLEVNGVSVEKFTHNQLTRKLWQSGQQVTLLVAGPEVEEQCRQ
GIPC2, Q8TF65, sequence (Q8TF65 112-203): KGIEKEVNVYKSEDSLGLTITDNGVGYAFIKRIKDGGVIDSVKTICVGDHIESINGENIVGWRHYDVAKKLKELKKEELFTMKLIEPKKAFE
LNX1_1, Q8TBB1, sequence (Q8TBB1 261-371): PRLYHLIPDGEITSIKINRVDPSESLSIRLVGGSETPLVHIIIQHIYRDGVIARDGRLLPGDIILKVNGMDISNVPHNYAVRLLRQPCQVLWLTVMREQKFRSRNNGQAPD
DLG4_2, P78352, sequence (P78352 155-259): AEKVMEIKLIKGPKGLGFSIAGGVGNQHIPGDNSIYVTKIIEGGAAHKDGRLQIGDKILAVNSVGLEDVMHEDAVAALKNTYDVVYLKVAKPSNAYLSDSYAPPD
NHERF4_4, Q86UT5, sequence (Q86UT5 464-550): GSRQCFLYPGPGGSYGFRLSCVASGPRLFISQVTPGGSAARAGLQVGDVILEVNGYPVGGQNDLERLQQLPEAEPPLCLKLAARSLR
Inadl_10, Q8NI35, sequence (Q8NI35 1673-1763): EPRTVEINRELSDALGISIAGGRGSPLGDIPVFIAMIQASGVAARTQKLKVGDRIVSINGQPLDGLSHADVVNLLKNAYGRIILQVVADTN
DLG4_3, P78352, sequence (P78352 306-403): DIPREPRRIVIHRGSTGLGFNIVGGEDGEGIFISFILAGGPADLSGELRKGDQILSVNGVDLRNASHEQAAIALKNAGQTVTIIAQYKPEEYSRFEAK
MAGI1_1, Q96QZ7, sequence (Q96QZ7 1-106): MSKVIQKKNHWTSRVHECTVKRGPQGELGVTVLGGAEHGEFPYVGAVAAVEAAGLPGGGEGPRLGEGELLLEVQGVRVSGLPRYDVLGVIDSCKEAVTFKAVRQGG
LNX1_3, Q8TBB1, sequence (Q8TBB1 500-596): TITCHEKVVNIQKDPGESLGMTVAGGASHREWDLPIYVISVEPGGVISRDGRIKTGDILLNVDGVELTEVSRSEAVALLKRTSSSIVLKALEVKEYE
PDZRN4_1, Q6ZMN7, sequence (Q6ZMN7 213-318): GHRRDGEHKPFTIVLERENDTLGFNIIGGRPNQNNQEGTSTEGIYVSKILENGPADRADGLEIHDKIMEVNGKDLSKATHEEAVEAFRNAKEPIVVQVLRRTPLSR
GORASP1, Q9BQQ3, sequence (Q9BQQ3 1-208): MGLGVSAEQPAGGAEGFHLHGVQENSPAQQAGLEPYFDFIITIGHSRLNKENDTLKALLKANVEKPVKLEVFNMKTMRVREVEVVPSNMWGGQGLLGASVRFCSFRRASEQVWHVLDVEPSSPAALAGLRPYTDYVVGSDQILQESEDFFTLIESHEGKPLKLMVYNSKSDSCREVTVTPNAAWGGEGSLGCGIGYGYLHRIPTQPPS
PDLIM1, O00151, sequence (O00151 1-87): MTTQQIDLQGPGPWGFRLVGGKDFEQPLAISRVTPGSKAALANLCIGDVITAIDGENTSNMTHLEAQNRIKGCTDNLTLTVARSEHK
SCRIB_1, Q14160, sequence (Q14160 718-814): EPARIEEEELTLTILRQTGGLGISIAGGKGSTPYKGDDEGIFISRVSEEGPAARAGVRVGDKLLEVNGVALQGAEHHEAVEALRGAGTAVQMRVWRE

| pKd [1] | pKd [2] | pKd [3] | pKd [4] | pKd [5] | pKd [6] | pKd [7] | pKd [8] | pKd [9] | pKd [10] | pKd [11] | pKd [12] | pKd [13] | pKd [14] | pKd [15] | pKd [16] | pKd [17] | pKd [18] | pKd [19] | pKd [20] | other results | Binder |
| --- | --- | --- | --- | --- | --- | --- | --- | --- | --- | --- | --- | --- | --- | --- | --- | --- | --- | --- | --- | --- | --- |
| below the threshold | below the threshold | below the threshold | below the threshold | below the threshold | below the threshold | below the threshold | below the threshold | below the threshold | below the threshold | below the threshold | below the threshold | below the threshold | below the threshold | below the threshold | below the threshold | 4.7 | below the threshold | below the threshold | 5.1 | pKd [21]: below the threshold; pKd [22]: below the threshold; pKd [23]: below the threshold; pKd [24]: below the threshold; pKd [25]: below the threshold; pKd [26]: below the threshold; pKd [27]: below the threshold | DTTVPESEDL [MYOZ2, Q9NPC6] |
| below the threshold | below the threshold | below the threshold | below the threshold | below the threshold | below the threshold | below the threshold | below the threshold | below the threshold | below the threshold | below the threshold | below the threshold | below the threshold | below the threshold | below the threshold | below the threshold | 3.93 | below the threshold | below the threshold | below the threshold | pKd [21]: below the threshold; pKd [22]: below the threshold; pKd [23]: below the threshold; pKd [24]: below the threshold; pKd [25]: below the threshold; pKd [26]: below the threshold; pKd [27]: below the threshold | SKSNFGSEPL [KIF17, Q9P2E2] |
